Data taken from paper PMC10686230 (The Journal of Cell Biology, 2023).

Target: the molecule itself
Test: SEC + SEC-MALS

B1: SMGL-1 (purified, GST tag cleaved) (natural protein, C. elegans, UniProt P90841 1-1615, looked up)
chain: MAHMRGTNHEKEKHDDENSKILLKERYNLLKWLTNVEMRSPNVLIPVQIANYVESLPFCKLAVSPKCDRVAVMSYARQLDIYQISGEILTHESSVQVLEETSPEYCILQFSSSSTLILSSRSTPHIDVFDSMGAYLYDIPLELHEGIFDVNSAICGMQTFENYSSSSNDKFIEILYVLQYSGVFSAFKIGRLSKYVKMWTVQLDIGQTGSFTVLPQYNLLLVASHHKESTSLVPPAGLCSFRMMDMDPFVEPIRISTPDGGFFSRLPFSTSFMSYLPRMSLSFDSQLLVSVSTSGSLYLFEIPSLHVKFSFNFISGPRPVDACFVDSDEIAVIYDNGYLLRCSLEDLEEKMYSVKMRSKKEIDEEPELKDFYSEQTVMVSPAQREIFLLTADGDNSFLRKAAHKRVQLAGQLWFYTVWNSLKKLVGMAMGEPAEQLHFETHIAKFEFSLIHSPTRTLQELFDRTLKEHDYTRARELAETYDTIDIYVVLKSEWIDKCSKNKVTVEDVEDILKRIGDSEWAAEQCASADSDDFEVHKALIDLGLSLGESSVTWQIRLLHHWRMLEVCRIKGDVDIYMMARNGSCLDAALTFAHNGDIDSLTRIIESNMAVMKHHQKRILSAIPTCTSPTKYEILMPKREDGETEEQWELEEQNDGIYERLDKILMEHPDAESLIRSINVGNIPNEETFDFTSWVRETLPKIDFECGMTDICVNLLQIAYERGYEDLIHDLATWQPYAQYIRICSSVSESITSFQDSTMKSFTDRFSRLLDSELIKNAKDIVSLIEWKIKMTSSDSEESIEDRLRDAVTTLMKATNERTTKVLVAFRNELPSVVDDHVILEVLLNMTSTGADLMKSLGDLPVDKYVNVTSSLGSLMSRGVKMTFKSIFESMKEPDGARRVLIKLSRSGNCSNFDDWMSLRDDIYDMANGIYEDLVTTEEALEIFAGEILEEERIGSHPELMELVLTLNPKEDNSNPRKLSIAKSADVLLSKSDELMNEATQRGDPLLGRSRFFAVAARPISPKKSKEKLDWLDAIDAALELGCTMMPIAIKFCEHDSLLRDVVGLGSNYKQGKKILSFAKQLNIDTPIATALSYCALAALNANDAVYLSKYIGEVMKAKGVPVVHKLCMQIMNSSHVPTDMEDVYSCAVLNSSEENLLDTVDAIASSEKRLSESRRCREIRLDDIPVSEAVVGDPMYTPMRLYNARKEISGDVKQKITFYGKRNLWETNYGKREGFDVMKRLYAHESSTVALCFSLFEPAENVETGELSWTKNDKLRRYERGLRFFQDRVPLSDLVTAPASAIINEANKGDASITAIDRIEDYGCDRRRFIGDAEYRTETIIGLAGTENEQIFADALELAEKYEIDEWKLHMASLEYLLDPSYNVPIIDVKQIMKSRKHLSKLRTKLDEFHSRLRSMVLPSLETNEQFLSYISLFADAEPEKKLGDTIKKIISKMKNVEAIRLWTDAKYLSSTLNKIPDGNLRAIISSVLQFPKIGVKACEMSAEFLLEGDDTRPPSNPFTLFLLMRSNIEDFLELVANKKSRDDEIAYLDQAVILLENTPKVPPLLLDAIKMRSEKMHRATVTPEPATPSNGSSTGLSSYFSNTEDNSGMMKRRKN
  stoichiometry N: 4
